Measurements from PMC5704485, “A unique cysteine-rich zinc finger domain present in a majority of class II ribonucleotide reductases mediates catalytic turnover” (The Journal of Biological Chemistry, 2017).
Where “and” joins values, the source holds several entries; their conditions need not be identical. Identical values can stand only once. Blank lines part the entries; values can stand above or below the compound they belong to.

Experiments:
[1] = target: T1, NrdJd-wt (Snas 4560), full-length class II RNR (Stackebrandtia nassauensis, UniProt D3Q6G1); assay: effector titration of NDP reductase activity, HPLC; format: biochemical; conditions: half-maximal activation by allosteric effector, AdoCbl
T1 construct: gene Snas_4560; monomer/dimer, tetramer/hexamer with dATP or dGTP
T1 sequence (D3Q6G1 1-946): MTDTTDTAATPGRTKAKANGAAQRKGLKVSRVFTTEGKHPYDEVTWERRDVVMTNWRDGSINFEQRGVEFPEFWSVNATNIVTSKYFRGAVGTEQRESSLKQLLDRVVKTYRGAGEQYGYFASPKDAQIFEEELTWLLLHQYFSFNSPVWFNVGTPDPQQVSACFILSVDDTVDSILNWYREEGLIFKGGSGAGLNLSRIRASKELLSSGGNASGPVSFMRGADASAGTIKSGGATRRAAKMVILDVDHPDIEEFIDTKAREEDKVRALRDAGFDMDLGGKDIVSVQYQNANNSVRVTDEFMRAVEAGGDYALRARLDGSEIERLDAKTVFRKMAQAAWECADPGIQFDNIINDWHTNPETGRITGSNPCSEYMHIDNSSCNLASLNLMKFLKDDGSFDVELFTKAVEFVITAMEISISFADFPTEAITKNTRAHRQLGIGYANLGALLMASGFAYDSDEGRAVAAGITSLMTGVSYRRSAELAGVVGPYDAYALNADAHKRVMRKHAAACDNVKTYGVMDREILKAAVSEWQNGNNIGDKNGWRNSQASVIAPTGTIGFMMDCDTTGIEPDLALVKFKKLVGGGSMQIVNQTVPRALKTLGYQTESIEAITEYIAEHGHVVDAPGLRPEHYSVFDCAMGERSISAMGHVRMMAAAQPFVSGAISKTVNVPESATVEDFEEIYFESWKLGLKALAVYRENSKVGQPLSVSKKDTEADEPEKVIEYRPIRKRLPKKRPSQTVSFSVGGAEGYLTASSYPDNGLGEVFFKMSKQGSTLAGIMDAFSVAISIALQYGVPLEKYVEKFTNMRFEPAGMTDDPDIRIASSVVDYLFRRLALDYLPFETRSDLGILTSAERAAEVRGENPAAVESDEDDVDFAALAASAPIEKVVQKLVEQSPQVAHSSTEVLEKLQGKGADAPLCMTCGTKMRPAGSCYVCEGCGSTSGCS

NrdJdΔCRD = target: T2, NrdJdΔCRD (Stackebrandtia nassauensis, UniProt D3Q6G1); assay: effector titration of NDP reductase activity, HPLC; format: biochemical; conditions: half-maximal activation by allosteric effector; range printed for all effectors together; single preferred NDP substrate; AdoCbl; Tris pH 8.0, 20 mM MgCl2, 50 mM DTT, room temperature
T2 construct: gene Snas_4560; catalytic domain, residues 1-714 (codon 715 replaced by stop), C-terminal cysteine-rich domain removed; mainly monomer

[2] = target: S. nassauensis NrdJd C933A, C-terminal (CRD) mutant (Stackebrandtia nassauensis)
[3] = target: NrdJdΔCRD, the C-terminally deleted version of the S. nassauensis class II ribonucleotide reductase (Stackebrandtia nassauensis); assay: GEMMA (gas phase electrophoretic macromolecule analysis); 0.025 mg/ml NrdJdΔCRD, with or without 100 μM effector (dATP); 40 mM ammonium acetate pH 7.8, 0.005% Tween 20, 0.2 mM DTT
[4] = target: T1, NrdJd-wt (Snas 4560), full-length class II RNR; assay: GEMMA oligomerization titration; format: binding; conditions: effector-induced tetramer/hexamer formation; 0.075 mg/ml protein; 40 mM ammonium acetate pH 7.8, equimolar MgCl2; possible further nucleotide site
[5] = target: T3, C933A/C370A mixture (mutant mix) of NrdJd (Stackebrandtia nassauensis, UniProt D3Q6G1, C370A/C933A); assay: effector titration of CDP reductase activity, HPLC; format: biochemical; conditions: half-maximal activation by allosteric effector; equimolar mixture of two single mutants; substrate CDP; reductant TCEP; AdoCbl; standard assay Tris pH 8.0, 20 mM MgCl2, room temperature
T3 construct: gene Snas_4560; equimolar mixture of two separately purified full-length single mutants (not a double mutant)
T3 sequence (D3Q6G1 entry or part of it C370A): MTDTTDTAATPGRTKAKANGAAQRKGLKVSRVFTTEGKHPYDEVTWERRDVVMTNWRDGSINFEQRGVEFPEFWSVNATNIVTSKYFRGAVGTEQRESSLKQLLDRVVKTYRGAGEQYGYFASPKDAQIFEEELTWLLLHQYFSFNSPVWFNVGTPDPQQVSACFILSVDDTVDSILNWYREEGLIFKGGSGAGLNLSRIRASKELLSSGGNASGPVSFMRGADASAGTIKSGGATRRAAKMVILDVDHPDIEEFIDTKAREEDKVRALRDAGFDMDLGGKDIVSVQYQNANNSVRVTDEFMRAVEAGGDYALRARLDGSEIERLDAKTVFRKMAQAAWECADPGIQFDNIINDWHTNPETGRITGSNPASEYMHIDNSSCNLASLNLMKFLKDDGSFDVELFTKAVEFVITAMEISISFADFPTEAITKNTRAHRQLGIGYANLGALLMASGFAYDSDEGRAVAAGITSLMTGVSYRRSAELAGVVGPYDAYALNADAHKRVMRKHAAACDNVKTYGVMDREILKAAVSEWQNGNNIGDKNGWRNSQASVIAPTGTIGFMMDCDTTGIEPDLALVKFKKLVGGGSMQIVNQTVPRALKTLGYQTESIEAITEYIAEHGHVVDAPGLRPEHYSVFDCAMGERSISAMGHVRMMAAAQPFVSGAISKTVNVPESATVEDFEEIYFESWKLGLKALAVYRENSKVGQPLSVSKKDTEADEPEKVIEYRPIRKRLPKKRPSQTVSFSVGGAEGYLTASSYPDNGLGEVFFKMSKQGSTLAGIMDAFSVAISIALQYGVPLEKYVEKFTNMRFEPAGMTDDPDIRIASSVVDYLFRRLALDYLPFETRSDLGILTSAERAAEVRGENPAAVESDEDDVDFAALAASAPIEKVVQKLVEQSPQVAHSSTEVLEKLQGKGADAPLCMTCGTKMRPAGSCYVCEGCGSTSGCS
T3 sequence (D3Q6G1 entry or part of it C933A): as the sequence (D3Q6G1 entry or part of it C370A) above, with A370C, C933A counted along it

[6] = target: NrdJd-wt, the full-length version of the Stackebrandtia nassauensis class II ribonucleotide reductase (Stackebrandtia nassauensis); assay: GEMMA (gas phase electrophoretic macromolecule analysis); 0.075 mg/ml NrdJd-wt with dGTP (100 μM, and a titration of dGTP), equimolar MgCl2; 40 mM ammonium acetate pH 7.8, 0.005% Tween 20, 0.2 mM DTT
[7] = target: NrdJd-wt, the full-length version of the Stackebrandtia nassauensis class II ribonucleotide reductase (Stackebrandtia nassauensis); assay: GEMMA (gas phase electrophoretic macromolecule analysis); 0.075 mg/ml NrdJd-wt, no effector; 40 mM ammonium acetate pH 7.8, 0.005% Tween 20, 0.2 mM DTT
[8] = target: NrdJd-wt, the full-length version of the Stackebrandtia nassauensis class II ribonucleotide reductase (Stackebrandtia nassauensis); assay: SEC; analytical SEC, Superdex 200 Increase 3.2, 25 μl of 1.0 mg/ml protein, 50 mM Tris pH 7.5, 300 mM NaCl, 1 mM DTT, in the presence or absence of 100 μM effector (dATP)
[9] = target: NrdJd-wt, the full-length version of the Stackebrandtia nassauensis class II ribonucleotide reductase (Stackebrandtia nassauensis); assay: GEMMA (gas phase electrophoretic macromolecule analysis); 0.075 mg/ml NrdJd-wt with dCTP, equimolar MgCl2; 40 mM ammonium acetate pH 7.8, 0.005% Tween 20, 0.2 mM DTT
[10] = target: NrdJd-wt, the full-length version of the Stackebrandtia nassauensis class II ribonucleotide reductase (Stackebrandtia nassauensis); assay: GEMMA (gas phase electrophoretic macromolecule analysis); 0.075 mg/ml NrdJd-wt with 100 μM dTTP, equimolar MgCl2; 40 mM ammonium acetate pH 7.8, 0.005% Tween 20, 0.2 mM DTT
[11] = target: NrdJd-wt, the full-length version of the Stackebrandtia nassauensis class II ribonucleotide reductase (Stackebrandtia nassauensis); assay: GEMMA (gas phase electrophoretic macromolecule analysis); 0.075 mg/ml NrdJd-wt with dATP (100 μM, and a titration of dATP), equimolar MgCl2; 40 mM ammonium acetate pH 7.8, 0.005% Tween 20, 0.2 mM DTT
[12] = single preferred NDP substrate (not given), Tris pH 8.0, 20 mM MgCl2, 50 mM DTT (standard conditions), room temperature, upper limit sta

Compound: Nc1ncnc2c1ncn2[C@@H]1O[C@H](COP(=O)(O)OP(=O)(O)OP(=O)(O)O)[C@@H](O)[C@H]1O [ATP]
- EC50 [1, 12]: < 4 µM
- KL (NrdJdΔCRD): the affinity of the C-terminal truncated enzyme toward each tested effector is reduced

Compound: NrdJdΔCRD, the C-terminally deleted version of the S. nassauensis class II ribonucleotide reductase (domain or fragment)
- stoichiometry N [3]: 2

Compound: Nc1ncnc2c1ncn2[C@H]1C[C@H](O)[C@@H](COP(=O)(O)OP(=O)(O)OP(=O)(O)O)O1 [dATP]
- concentration with half the enzyme as tetramer or hexamer [4]: ~ 17 μmol liter^−1
- EC50 ([1]; substrate CDP, reductant TCEP, standard assay Tris pH 8.0, 20 mM MgCl2, room temperature): < 4 µM
- EC50 [5]: 15 ± 4.5 µM

Compound: NrdJd-wt, the full-length version of the Stackebrandtia nassauensis class II ribonucleotide reductase (enzyme)
- stoichiometry N [6]: 4 and 6
- stoichiometry N [7]: 2
- stoichiometry N [8]: 4
- stoichiometry N [9]: 2
- stoichiometry N [10]: 2
- stoichiometry N [11]: 4 and 6

Compound: Nc1ccn([C@H]2C[C@H](O)[C@@H](COP(=O)(O)OP(=O)(O)OP(=O)(O)O)O2)c(=O)n1 [dCTP]
- EC50 [1, 12]: < 4 µM

Results, then the compound that gave them:

- RNR activity of the C933A/C370A mixture, substrate/effector GDP/dTTP (dimers only), TCEP as reductant, dTTP titrated 4 to 1000 μM, relative to NrdJd-wt (3 to 7%) (% of NrdJd-wt) [2]: 3 to 7
- Vmax of RNR activity of the C933A/C370A mixture, substrate/effector CDP/dATP (tetramers and hexamers), TCEP as reductant, relative to NrdJd-wt (% of the wild type) [2]: 30
Compound: S. nassauensis NrdJd C370A, active site cysteine-deficient mutant (enzyme)

- EC50 [1, 12]: < 4 µM
Compound: Cc1cn([C@H]2C[C@H](O)[C@@H](COP(=O)(O)OP(=O)(O)OP(=O)(O)O)O2)c(=O)[nH]c1=O [dTTP]

- EC50 [1, 12]: < 4 µM
Compound: Nc1nc2c(ncn2[C@H]2C[C@H](O)[C@@H](COP(=O)(O)OP(=O)(O)OP(=O)(O)O)O2)c(=O)[nH]1 [dGTP]
